Reference: US20260184782A1 (TWIST BIOSCIENCE, published 2026)
Where two headings read alike, the source gives them in different places.

T1: TIGIT (UniProt Q495A1 22-141, limits assumed)
T1 construct: also called T cell immunoreceptor with Ig and ITIM domains; hTIGIT
T1 sequence (looked up): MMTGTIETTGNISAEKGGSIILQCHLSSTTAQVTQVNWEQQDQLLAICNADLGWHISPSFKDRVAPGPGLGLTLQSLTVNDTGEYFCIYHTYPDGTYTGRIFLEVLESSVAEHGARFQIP

T2: recombinant human TIGIT (human, UniProt Q495A1 22-141, limits assumed)
T2 construct: also called T cell immunoreceptor with Ig and ITIM domains
T2 sequence (looked up): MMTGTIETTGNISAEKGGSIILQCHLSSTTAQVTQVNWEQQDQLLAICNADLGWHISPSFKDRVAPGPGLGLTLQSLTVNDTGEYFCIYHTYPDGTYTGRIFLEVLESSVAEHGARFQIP

T3: human TIGIT-Fc (human, UniProt Q495A1 22-141, limits assumed)
T3 construct: not shown: Fc; not described
T3 sequence (looked up): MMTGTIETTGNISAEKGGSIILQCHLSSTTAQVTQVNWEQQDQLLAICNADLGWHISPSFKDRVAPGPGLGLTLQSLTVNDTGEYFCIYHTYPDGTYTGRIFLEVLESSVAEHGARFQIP


Key:
[1] = target: T1, TIGIT; assay: ELISA; set-up: unit not given here
[2] = target: T1, TIGIT; assay: SPR (Carterra)
[3] = target: T2, recombinant human TIGIT; assay: SPR (Carterra), average
Procedure: Binding affinities of VHH-Fc proteins to recombinant human TIGIT were measured by SPR using a Carterra instrument (Table 10A). […] Average values reported from measurements from 1-2 samples.

[4] = target: T3, human TIGIT-Fc; assay: CD155 competition ELISA, single point; further: test concentration or dose not given here
Procedure: TIGIT/CD155 inhibition of VHH-Fcs were assessed using an ELISA assay (Table 10B). Briefly, human TIGIT-Fc was coated on a plate & then incubated with VHH-Fcs and human CD155-biotin. Bound CD155-biotin was detected using a streptavidin-HRP conjugate visualized with TMB. Strong inhibitors from the single point screen were titrated to determine EC50 (Table 10C).

[5] = target: T1, TIGIT; assay: SPR (Carterra); remark: listed apart in the source
[6] = target: T1, TIGIT; assay: TIGIT:CD155 blockade assay, competitor CD155

Binder	ELISA [1]	Kd [2] [µM]	koff [2] [s⁻¹]	kon [2] [M⁻¹ s⁻¹]	also measured
TIGIT-211-43 (antibody, V domains shown) VH: EVQLLESGGGLVQPGGSLRLSCAASGFTFYDYTMDWVRQAPGKGLEWVSAISGSGGGTSYADSVKGRFTISRDNSKNTLYLQMNSLRAEDTAVYYCARRHWPGGFDYWGQGTLVTVSS VL: DIQMTQSPSSLSASVGDRVTITCRASQSIRRYLNWYQQKPGKAPKLLIYWASDRESGVPSRFSGSGSGTDFTLTISSLQPEDFATYYCQQSFSTPLTFGQGTKVEIK	12	0.819	0.00117	1430	–
TIGIT-211-69 (antibody, V domains shown) VH: EVQLLESGGGLVQPGGSLRLSCAASGFTFGNYRMTWVRQAPGKGLEWVGVIWGGGGTYYADSVKGRFTISRDNSKNTLYLQMNSLRAEDTAVYYCARIFSYALDYWGQGTLVTVSS VL: DIQMTQSPSSLSASVGDRVTITCRASQNIRSYLNWYQQKPGKAPKLLIYGASTLQSGVPSRFSGSGSGTDFTLTISSLQPEDFATYYCQQSYENPLTFGQGTKVEIK	7.9	3.04	0.0622	20400	–
TIGIT-SC135 (Fc fusion, VHH-Fc) VHH: EVQLVESGGGLVQPGGSLRLSCAASGFAFGDSWMGWFRQAPGKEREWVASVLRGGTLRAYAVSVKGRFTISADNSKNAAYLQMNSLKPEDTAVYYCARASIVGTTTLVWGQGTLVTVSS	–	–	–	–	Kd [3]: 1.67 µM; koff [3]: 0.21 s⁻¹; kon [3]: 126000 M⁻¹ s⁻¹; OD (450 nm) [4]: 0.827 OD
TIGIT-SC157 (Fc fusion, VHH-Fc) VHH: EVQLVESGGGLVQPGGSLRLSCAASGFTFSPSWMGWFRQAPGKEREWVASVLRGGYTWYADSVKGRFTISADNSKNTAYLQMNSLKPEDTAVYYCTTEGYDFWSGYYDYWGQGTLVTVSS	–	–	–	–	Kd [3]: 302 µM; koff [3]: 0.0054 s⁻¹; OD (450 nm) [4]: 0.414 OD
TIGIT-211-40 (antibody, V domains shown) VH: EVQLLESGGGLVQPGGSLRLSCAASGFTFSRYAMNWVRQAPGKGLEWVSEISPSGKKKYYADSVKGRFTISRDNSKNTLYLQMNSLRAEDTAVYYCAKSSFDKYNFDYWGQGTLVTVSS VL: DIQMTQSPSSLSASVGDRVTITCRASQDIGNFLNWYQQKPGKAPKLLIYRTSWLQSGVPSRFSGSGSGTDFTLTISSLQPEDFATYYCQQRSSYPPTFGQGTKVEIK	10.2	0.392	0.0405	103000	–
TIGIT-211-57 (antibody, V domains shown) VH: EVQLLESGGGLVQPGGSLRLSCAASGLTFPNYGMGWVRQAPGKGLEWVSAISREGRATYYADSVKGRFTISRDNSKNTLYLQMNSLRAEDTAVYYCARVIAAAGAFDYWGQGTLVTVSS VL: DIQMTQSPSSLSASVGDRVTITCRSSQSLVHSTGNTYLHWYQQKPGKAPKLLIYGKNIRPSGVPSRFSGSGSGTDFTLTISSLQPEDFATYYCQQSYTTPWTFGQGTKVEIK	12.4	3.4	0.105	30800	–
TIGIT-211-35 (antibody, V domains shown) VH: EVQLLESGGGLVQPGGSLRLSCAASGFTFNAYPMTWVRQAPGKGLEWVSAITGSGGSTYYADSVKGRFTISRDNSKNTLYLQMNSLRAEDTAVYYCARDGSYSSSWYGYWGQGTLVTVSS VL: DIQMTQSPSSLSASVGDRVTITCSGNKLGDKYASWYQQKPGKAPKLLIYRTSWLQSGVPSRFSGSGSGTDFTLTISSLQPEDFATYYCVARAVRGNPHVLFGQGTKVEIK	8.8	0.605	0.0406	67100	–
TIGIT-211-42 (antibody, V domains shown) VH: EVQLLESGGGLVQPGGSLRLSCAASGFTFNHYGMGWVRQAPGKGLEWVSYISSSGSSTYYADSVKGRFTISRDNSKNTLYLQMNSLRAEDTAVYYCAKGWLGNFDYWGQGTLVTVSS VL: DIQMTQSPSSLSASVGDRVTITCRASQGVRTSLAWYQQKPGKAPKLLIYGKNIRPSGVPSRFSGSGSGTDFTLTISSLQPEDFATYYCQQSYSFPLTFGQGTKVEIK	8	0.0661	0.000643	9740	–
TIGIT-SC210 (Fc fusion, VHH-Fc) VHH: EVQLVESGGGLVQPGGSLRLSCAASGFLFDSYWMVWFRQAPGKEREFVAAIWRSGTLKAYADSVKGRFTISADNSKNTAYLQMNSLKPEDTAVYYCARDHRAMVAPFDYWGQGTLVTVSS	–	–	–	–	Kd [3]: 6.33 µM; koff [3]: 0.258 s⁻¹; kon [3]: 40700 M⁻¹ s⁻¹; OD (450 nm) [4]: 0.516 OD
TIGIT-SC196 (Fc fusion, VHH-Fc) VHH: EVQLVESGGGLVQPGGSLRLSCAASGFAFSSDWMGWFRQAPGKEREWVASVLRGGYTWYADSVKGRFTISADNSKNTAYLQMNSLKPEDTAVYYCATEGLGYWGQGTLVTVSS	–	–	–	–	Kd [3]: 112 µM; koff [3]: 0.00692 s⁻¹; kon [3]: 143 M⁻¹ s⁻¹; OD (450 nm) [4]: 0.374 OD
TIGIT-211-30 (antibody, V domains shown) VH: EVQLLESGGGLVQPGGSLRLSCAASGFTFKSYGMHWVRQAPGKGLEWVSAISGSGGGTSYADSVKGRFTISRDNSKNTLYLQMNSLRAEDTAVYYCARAGQWLGDFDYWGQGTLVTVSS VL: DIQMTQSPSSLSASVGDRVTITCRASQPIGPDLLWYQQKPGKAPKLLIYRKSNRPSGVPSRFSGSGSGTDFTLTISSLQPEDFATYYCQQSYSTPYTFGQGTKVEIK	8	2.23	0.0681	30500	–
TIGIT-211-51 (antibody, V domains shown) VH: EVQLLESGGGLVQPGGSLRLSCAASGFTFHKYGMAWVRQAPGKGLEWVSTISSGGGYTYYPDSVKGRFTISRDNSKNTLYLQMNSLRAEDTAVYYCARDTYLHFDYWGQGTLVTVSS VL: DIQMTQSPSSLSASVGDRVTITCRASQGVRTSLAWYQQKPGKAPKLLIYAKNNRPSGVPSRFSGSGSGTDFTLTISSLQPEDFATYYCQQSYSAPYTFGQGTKVEIK	10.7	0.0965	0.0335	347000	–
TIGIT-471-001 (antibody, V domains shown, Variable domains only) VH: EVQLLESGGGLVQPGGSLRLSCAASGFTFSNYGVSWVRQAPGKGLEWVGYINPSRGYTYYADSVKGRFTISRDNSKNTLYLQMNSLRAEDTAVYYCARSYGGGFDYWGQGTLVTVSS VL: DIQMTQSPSSLSASVGDRVTITCRASQTIERRLNWYQQKPGKAPKLLIYDASSLHTGVPSRFSGSGSGTDFTLTISSLQPEDFATYYCQQSYIIPPTFGQGTKVEIK	–	–	–	–	Kd [5]: 0.0613 µM; RU [5]: 175 RU; koff [5]: 0.022 s⁻¹; kon [5]: 359000 M⁻¹ s⁻¹; IC50 [6]: 0.0096 µM
TIGIT-211-17 (antibody, V domains shown) VH: EVQLLESGGGLVQPGGSLRLSCAASGFTFAEYSMNWVRQAPGKGLEWVSWISPHGALTYYADSVKGRFTISRDNSKNTLYLQMNSLRAEDTAVYYCARSYGGGFDYWGQGTLVTVSS VL: DIQMTQSPSSLSASVGDRVTITCRASQTIERRLNWYQQKPGKAPKLLIYQNDKRPSGVPSRFSGSGSGTDFTLTISSLQPEDFATYYCQQSYSIPPTFGQGTKVEIK	13.2	0.472	0.126	266000	–
TIGIT-211-45 (antibody, V domains shown) VH: EVQLLESGGGLVQPGGSLRLSCAASGFTFRRYVMGWVRQAPGKGLEWVSEISPSGGYTYYADSVKGRFTISRDNSKNTLYLQMNSLRAEDTAVYYCAKRWTFNTAFDYWGQGTLVTVSS VL: DIQMTQSPSSLSASVGDRVTITCRASQSIRRYLNWYQQKPGKAPKLLIYDASNLQSGVPSRFSGSGSGTDFTLTISSLQPEDFATYYCQQSYDFPRTFGQGTKVEIK	8.8	0.105	0.00125	11900	–
TIGIT-211-28 (antibody, V domains shown) VH: EVQLLESGGGLVQPGGSLRLSCAASGFTFSTYAMSWVRQAPGKGLEWVSEISPSGGYTYYADSVKGRFTISRDNSKNTLYLQMNSLRAEDTAVYYCAKVKLGGGPNFDYWGQGTLVTVSS VL: DIQMTQSPSSLSASVGDRVTITCQGASLRNYYASWYQQKPGKAPKLLIYDTSKVASGVPSRFSGSGSGTDFTLTISSLQPEDFATYYCFQGSHIPYTFGQGTKVEIK	7.2	0.0631	0.0016	25400	–
TIGIT-211-18 (antibody, V domains shown) VH: EVQLLESGGGLVQPGGSLRLSCAASGFTFGTIPMSWVRQAPGKGLEWVGVIWGGGGTYYADSVKGRFTISRDNSKNTLYLQMNSLRAEDTAVYYCAKAHGNPVSDLSFDYWGQGTLVTVSS VL: DIQMTQSPSSLSASVGDRVTITCSGDKLGDKYTSWYQQKPGKAPKLLIYHTSRLQDGVPSRFSGSGSGTDFTLTISSLQPEDFATYYCQQSYNLPLTFGQGTKVEIK	9.7	0.268	0.000832	3110	–
TIGIT-SC138 (Fc fusion, VHH-Fc) VHH: EVQLVESGGGLVQPGGSLRLSCAASGFTLENNMMGWFRQAPGKGREFVAAISRSGTLKAYADSVKGRFTISADNSKNTAYLQMNSLKPEDTAVYYCARVRYYYDSSGYFFWFDLWGQGTLVTVSS	–	–	–	–	Kd [3]: 7.3 µM; koff [3]: 0.363 s⁻¹; kon [3]: 49700 M⁻¹ s⁻¹; OD (450 nm) [4]: 0.393 OD
